Patent publication US20240383990A1

B1: BMP9 (ligand, UniProt Q9UK05 320-429, looked up)
chain: SAGAGSHCQKTSLRVNFEDIGWDSWIIAPKEYEAYECKGGCFFPLADDVTPTKHAIVQTLVHLKFPTKVGKACCVPTKLSPISVLYKDDMGVPTLKYHYEGMSVAECGCR
B2: BMP10 (ligand, UniProt O95393 317-424, looked up)
chain: NAKGNYCKRTPLYIDFKEIGWDSWIIAPPGYEAYECRGVCNYPLAEHLTPTKHAIIQALVHLKNSQKASKACCVPTKLEPISILYLDKGVVTYKFKYEGMAVSECGCR

Biological target: ALK1 / BMPRII receptor pair (BMPR Type I receptor ALK1 and BMPR Type II receptor BMPRII) on cells (UniProt P37023)
Sequence (P37023 22-503 limits assumed, chain 1 of 2): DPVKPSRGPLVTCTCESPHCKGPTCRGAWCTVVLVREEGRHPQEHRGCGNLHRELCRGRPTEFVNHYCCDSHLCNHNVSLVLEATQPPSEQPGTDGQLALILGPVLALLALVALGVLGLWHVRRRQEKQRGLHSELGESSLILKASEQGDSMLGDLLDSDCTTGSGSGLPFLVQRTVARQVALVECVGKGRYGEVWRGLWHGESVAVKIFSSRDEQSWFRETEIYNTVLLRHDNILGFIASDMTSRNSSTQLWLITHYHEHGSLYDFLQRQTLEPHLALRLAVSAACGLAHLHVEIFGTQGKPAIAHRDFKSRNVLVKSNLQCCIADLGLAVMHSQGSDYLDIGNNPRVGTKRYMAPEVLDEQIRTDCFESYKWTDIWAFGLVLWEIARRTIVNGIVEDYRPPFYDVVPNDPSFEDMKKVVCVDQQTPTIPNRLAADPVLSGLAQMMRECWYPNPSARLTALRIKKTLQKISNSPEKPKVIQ
Sequence (Q13873 27-1038 limits assumed, chain 2 of 2, further chain): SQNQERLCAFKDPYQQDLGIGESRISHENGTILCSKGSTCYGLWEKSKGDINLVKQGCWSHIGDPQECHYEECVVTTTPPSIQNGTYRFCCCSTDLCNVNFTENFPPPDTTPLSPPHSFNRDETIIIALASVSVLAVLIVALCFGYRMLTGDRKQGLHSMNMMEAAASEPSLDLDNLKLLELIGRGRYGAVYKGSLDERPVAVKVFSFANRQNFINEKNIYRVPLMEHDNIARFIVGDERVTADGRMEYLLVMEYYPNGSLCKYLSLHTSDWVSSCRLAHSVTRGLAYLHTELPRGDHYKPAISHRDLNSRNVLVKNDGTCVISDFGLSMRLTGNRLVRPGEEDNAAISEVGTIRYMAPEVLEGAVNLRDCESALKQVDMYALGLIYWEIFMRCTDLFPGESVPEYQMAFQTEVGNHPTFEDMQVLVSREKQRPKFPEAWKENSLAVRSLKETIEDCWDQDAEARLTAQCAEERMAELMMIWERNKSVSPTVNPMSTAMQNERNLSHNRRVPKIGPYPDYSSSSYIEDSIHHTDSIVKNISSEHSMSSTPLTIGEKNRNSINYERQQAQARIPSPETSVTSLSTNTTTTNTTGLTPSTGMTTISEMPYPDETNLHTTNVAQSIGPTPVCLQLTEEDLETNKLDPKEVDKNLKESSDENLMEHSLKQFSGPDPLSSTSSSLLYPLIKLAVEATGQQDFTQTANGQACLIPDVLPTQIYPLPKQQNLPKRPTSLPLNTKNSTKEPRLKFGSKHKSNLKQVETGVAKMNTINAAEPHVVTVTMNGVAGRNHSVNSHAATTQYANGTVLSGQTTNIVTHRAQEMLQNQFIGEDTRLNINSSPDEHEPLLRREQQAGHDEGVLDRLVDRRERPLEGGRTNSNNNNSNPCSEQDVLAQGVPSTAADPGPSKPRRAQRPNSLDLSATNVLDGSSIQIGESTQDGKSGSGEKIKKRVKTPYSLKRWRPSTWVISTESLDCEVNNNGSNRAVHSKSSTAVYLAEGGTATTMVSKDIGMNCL
Assay: cell-based or functional assay

Binder	Agonist activity, % Emax BMP9	Agonist activity, EC50	Agonist activity, EMAX (RLU)	pSMAD1 ELISA in HUVEC, RLU 15 minutes, at 0 nM (baseline)	pSMAD1 ELISA in HUVEC, RLU 15 minutes, at 0.04 nM	pSMAD1 ELISA in HUVEC, RLU 15 minutes, at 0.2 nM	pSMAD1 ELISA in HUVEC, RLU 15 minutes, at 1 nM	pSMAD1 ELISA in HUVEC, RLU 60 minutes, at 0 nM (baseline)	pSMAD1 ELISA in HUVEC, RLU 60 minutes, at 0.04 nM	pSMAD1 ELISA in HUVEC, RLU 60 minutes, at 0.2 nM	pSMAD1 ELISA in HUVEC, RLU 60 minutes, at 1 nM
B1	100 % Emax BMP9	0.02 nM	2.64e+06 RLU	4.9 RLU	101 RLU	102 RLU	106 RLU	6.1 RLU	81.8 RLU	83.2 RLU	81.8 RLU
B2	97 % Emax BMP9	0.1 nM	2.57e+06 RLU								
